Consider 1 molecule from paper PMC8299537.

The stoichiometry N is a count of units in the complex or per binding partner.

The target in the assay is DPP9, short isoform (His-TEV-DPP9), co-purified with NLRP1ΔΔ (human), Q86TI2. Put plainly: cryo-EM structure. Particulars: remark: other sources report otherwise.

B1: DPP9, short isoform (His-TEV-DPP9), co-purified with NLRP1ΔΔ, Q86TI2-1 1-863 (enzyme)
chain: MATTGTPTADRGDAAATDDPAARFQVQKHSWDGLRSIIHGSRKYSGLIVNKAPHDFQFVQKTDESGPHSHRLYYLGMPYGSRENSLLYSEIPKKVRKEALLLLSWKQMLDHFQATPHHGVYSREEELLRERKRLGVFGITSYDFHSESGLFLFQASNSLFHCRDGGKNGFMVSPMKPLEIKTQCSGPRMDPKICPADPAFFSFINNSDLWVANIETGEERRLTFCHQGLSNVLDDPKSAGVATFVIQEEFDRFTGYWWCPTASWEGSEGLKTLRILYEEVDESEVEVIHVPSPALEERKTDSYRYPRTGSKNPKIALKLAEFQTDSQGKIVSTQEKELVQPFSSLFPKVEYIARAGWTRDGKYAWAMFLDRPQQWLQLVLLPPALFIPSTENEEQRLASARAVPRNVQPYVVYEEVTNVWINVHDIFYPFPQSEGEDELCFLRANECKTGFCHLYKVTAVLKSQGYDWSEPFSPGEDEFKCPIKEEIALTSGEWEVLARHGSKIWVNEETKLVYFQGTKDTPLEHHLYVVSYEAAGEIVRLTTPGFSHSCSMSQNFDMFVSHYSSVSTPPCVHVYKLSGPDDDPLHKQPRFWASMMEAASCPPDYVPPEIFHFHTRSDVRLYGMIYKPHALQPGKKHPTVLFVYGGPQVQLVNNSFKGIKYLRLNTLASLGYAVVVIDGRGSCQRGLRFEGALKNQMGQVEIEDQVEGLQFVAEKYGFIDLSRVAIHGWSYGGFLSLMGLIHKPQVFKVAIAGAPVTVWMAYDTGYTERYMDVPENNQHGYEAGSVALHVEKLPNEPNRLLILHGFLDENVHFFHTNFLVSQLIRAGKPYQLQIYPNERHSIRCPESGEHYEVTLLHFLQEYL
As to B1, the stoichiometry N turned out to be 2.
